Experimental data as given in US20050215629.
Numbering of substitutions follows the chain as printed.

T1: synthetic phosphotyrosine peptide Arg-Arg-Leu-Ile-Glu-Asp-Ala-Glu-Tyr-Ala-Ala-Arg-Gly, wherein the tyrosine is phosphorylated
T1 chain: RRLIEDAEYAARG

B1: GST fusion protein of human PRL-2 (protein)
chain: MNRPAPVEISYENMRFLITHNPTNATLNKFTEELKKYGVTTLVRVCDATYDKAPVEKEGIHVLDWPFDDGAPPPNQIVDDWLNLLKTKFREEPGCCVAVHCVAGLGRAPVLVALALIECGMKYEDAVQFIRQKRRGAFNSKQLLYLEKYRPKMRLRFRDTNGHCCVQ
B2: Flag-tagged PRL-1 (protein)
chain: MARMNRPAPVEVTYKNMRFLITHNPTNATLNKFIEELKKYGVTTIVRVCEATYDTTLVEKEGIHVLDWPFDDGAPPSNQIVDDWLSLVKIKFREEPGCCIAVHCVAGLGRAPVLVALALIEGGMKYEDAVQFIRQKRRGAFNSKQLLYLEKYRPKMRLRFKDSNGHRNNCCIQ
B3: Flag-tagged PRL-1R86 mutant (protein)
chain: B2 chain with S86R
B4: GST fusion protein of human PRL-1 (protein)
chain: B2 chain
B5: GST fusion protein of PRL-1R86 (protein)
chain: B2 chain with S86R

Biological target: T1, synthetic phosphotyrosine peptide …

| Protein | in vitro PTPase assay | immunocomplex PTPase assay (anti-Flag immunocomplexes from NIH3T3 transfectants) | immunocomplex PTPase assay (anti-Flag immunocomplexes from WM9 transfectants) |
| --- | --- | --- | --- |
| B1 | PTPase activity of recombinant PRL-1, PRL-2 and PRL-3 in dephosphorylating a synthetic phosphotyrosine peptide substrate | – | – |
| B2 | – | a markedly higher PTPase activity (about 23 folds) over that of control transfectants | showed phosphatase activities well above the background activity of the vector control cells |
| B3 | – | – | showed phosphatase activities well above the background activity of the vector control cells |
| B4 | PTPase activity of recombinant PRL-1, PRL-2 and PRL-3 in dephosphorylating a synthetic phosphotyrosine peptide substrate | – | – |
| B5 | showed in vitro PTPase activity similar to that of wild type PRL-1 | – | – |
